Residue numbers refer to the chain shown, from its start. In names and notes the source's numbering stands. No end group written: not given here. TMR = tetramethyl rhodamine dye
T1: Rb^P A525G (human, UniProt P06400 380-788, A525G)
T1 construct: also called variant 20
T1 sequence (looked up): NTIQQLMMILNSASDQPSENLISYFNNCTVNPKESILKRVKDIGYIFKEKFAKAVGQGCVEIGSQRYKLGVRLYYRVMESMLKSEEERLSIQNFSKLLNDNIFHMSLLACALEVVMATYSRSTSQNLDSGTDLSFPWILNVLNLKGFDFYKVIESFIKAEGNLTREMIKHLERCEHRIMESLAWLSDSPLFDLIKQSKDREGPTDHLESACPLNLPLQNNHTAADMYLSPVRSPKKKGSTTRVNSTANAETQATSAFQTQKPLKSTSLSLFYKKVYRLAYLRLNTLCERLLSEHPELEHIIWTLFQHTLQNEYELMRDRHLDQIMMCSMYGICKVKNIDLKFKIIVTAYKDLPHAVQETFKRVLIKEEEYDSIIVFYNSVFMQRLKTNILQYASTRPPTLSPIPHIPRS

T2: Rb^P S612P (human, UniProt P06400 380-788, S612P)
T2 construct: also called variant 39
T2 sequence (looked up): T1 sequence (looked up) with G146A, S233P

T3: Rb^P S751Y (human, UniProt P06400 380-788, S751Y)
T3 construct: also called variant 72
T3 sequence (looked up): T1 sequence (looked up) with G146A, S372Y

T4: Rb^P R556Q (human, UniProt P06400 380-788, R556Q)
T4 construct: also called variant 30
T4 sequence (looked up): T1 sequence (looked up) with G146A, R177Q

T5: Rb^P E539D (human, UniProt P06400 380-788, E539D)
T5 construct: also called variant 24
T5 sequence (looked up): T1 sequence (looked up) with G146A, E160D

B1: TMR-E2F1^TD, peptide of the E2F1 transactivation domain (peptide)
peptide: {TMR}-GEGIRDLFDCDFGDLTPLD
notes: also called E2F^TD; source: synthetic peptide, bought: GenScript
B2: TMR-E7^LxCxE, LxCxE peptide of the E7 oncoprotein from HPV (peptide)
peptide: DLYCYEQLN
modifications: also: TMR label, position not given here
notes: source: synthetic peptide, bought: GenScript

How the values were obtained:
Experiment in all cases: fluorescence polarisation; 37 °C, after the 25 °C reading ramped over 7 min to 37 °C and 2 min incubation; unlabeled Rb^P against 1.5 nM TMR-E2F1^TD or 7.5 nM TMR-E7^LxCxE; 25 mM Tris pH 8.0, 200 mM NaCl, 1 mM DTT, 0.1% Tween-20; apparent Kd
Details in all cases: both partners purified
Rb^P A525G = target: T1, Rb^P A525G
Rb^P S612P = target: T2, Rb^P S612P
Rb^P S751Y = target: T3, Rb^P S751Y
Rb^P R556Q = target: T4, Rb^P R556Q
Rb^P E539D = target: T5, Rb^P E539D

| Binder | Kd (Rb^P A525G) | Kd (Rb^P S612P) | Kd (Rb^P S751Y) | Kd (Rb^P R556Q) | Kd (Rb^P E539D) |
| --- | --- | --- | --- | --- | --- |
| B1 | 65 nM | 49 nM | 127 nM | 48 nM | 104 nM |
| B2 | 52 nM | 17 nM | 420 nM | 13 nM | 19 nM |
